According to the RNAGym collection of RNA variant scans (doi:10.7554/elife.80360):

B1: CPEB3 Ribozyme (parent)
chain: GGGGGCCACAGCAGAAGCGUUCACGUCGCGGCCCCUGUCAGAUUCUGGUGAAUCUGCGAAUUCUGCUGU

Variants of: B1
Experiment: self-cleavage, relative activity (ratio to wild type); higher = more cleavage; co-transcriptional

| Variant | self-cleavage |
| --- | --- |
| GGGGGCAACAGCAGAAGCGUUCACGUCGCGGCCCCUGUCAGAUUCUGGUGAAGCUGCGAAUUCUGCUGU [C7A U53G] | 0.177 |
| GGGGGCAACAGCAGAAUCGUUCACGUCGCGGCCCCUGUCAGAUUCUGGUGAAUCUGCGAAUUCUGCUGU [C7A G17U] | 0.126 |
| GGGGGCAACAGCAGAACCGUUCACGUCGCGGCCCCUGUCAGAUUCUGGUGAAUCUGCGAAUUCUGCUGU [C7A G17C] | 0.14 |
| GGGGGCAACAGCAGAAACGUUCACGUCGCGGCCCCUGUCAGAUUCUGGUGAAUCUGCGAAUUCUGCUGU [C7A G17A] | 0.0679 |
| GGGGGCAACAGCAGAAGCGUUCACGUCGCGGCCCCUGUCAGAUCCUGGUGAAUCUGCGAAUUCUGCUGU [C7A U44C] | 0.432 |
| GGGGGCAACAGCAGAAGCGUUCACGUCGCGGCCCCUGUCAGAUGCUGGUGAAUCUGCGAAUUCUGCUGU [C7A U44G] | 0.305 |
| GGGGGCAACAGCAGAAGCGUUCACGUCGCGGCCCCUGUCAGAUUCUGGUGAAUCUGCGAAUUCUUCUGU [C7A G65U] | 0.198 |
| GGGGGCAACAGCAGAAGCGUUCACGUCGCGGCCCCUGUCAGAUUCUGGUGAAUCUGCGAAUUCUACUGU [C7A G65A] | 0.496 |
| GGGGGCAACAGCAGAAGCGUUCACGUCGCGGCCCCUGUCAGAUUCUGGUGAAUCUGCGAAUUCUCCUGU [C7A G65C] | 0.314 |
| GGGGGCAACAGCAGAAGCGUUCACGUCGCGGCCCCUGUCAGAUUGUGGUGAAUCUGCGAAUUCUGCUGU [C7A C45G] | 0.421 |
| GGGGGCAACAGCAGAAGCGUUCACGUCGCGGCCCCUGUCAGAUUCUGGUGAAUCUCCGAAUUCUGCUGU [C7A G56C] | 0.243 |
| GGGGGCAACAGCAGAAGCGUUCACGUCGCGGCCCCUGUCAGAUUCUGGUGAAUCUACGAAUUCUGCUGU [C7A G56A] | 0.34 |
| GGGGGCAACAGCAGAAGCGUUCACGUCGCGGCCACUGUCAGAUUCUGGUGAAUCUGCGAAUUCUGCUGU [C7A C34A] | 0.106 |
| GGGGGCAACAGCAGAAGCGUUCACGUCGCGGCCGCUGUCAGAUUCUGGUGAAUCUGCGAAUUCUGCUGU [C7A C34G] | 0.136 |
| GGGGGCAACAGCAGAAGCGUUCACGUCGCGGCCUCUGUCAGAUUCUGGUGAAUCUGCGAAUUCUGCUGU [C7A C34U] | 0.487 |
| GGGGGCAACAGCAGAAGCGUUCACGUCGCGGCCCCUGUCACAUUCUGGUGAAUCUGCGAAUUCUGCUGU [C7A G41C] | 0.146 |
| GGGGGCAACAGCAGAAGCGUUCACGUCGCGGCGCCUGUCAGAUUCUGGUGAAUCUGCGAAUUCUGCUGU [C7A C33G] | 0.226 |
| GGGGGCAACAGCAGAAGCGUUCACGUCGCGGCACCUGUCAGAUUCUGGUGAAUCUGCGAAUUCUGCUGU [C7A C33A] | 0.119 |
| GGGGGCAACAGCAGAAGCGUUCACGUCGCGGCUCCUGUCAGAUUCUGGUGAAUCUGCGAAUUCUGCUGU [C7A C33U] | 0.489 |
| GGGGGCAACAACAGAAGCGUUCACGUCGCGGCCCCUGUCAGAUUCUGGUGAAUCUGCGAAUUCUGCUGU [C7A G11A] | 0.401 |
| GGGGGCAACAUCAGAAGCGUUCACGUCGCGGCCCCUGUCAGAUUCUGGUGAAUCUGCGAAUUCUGCUGU [C7A G11U] | 0.315 |
| GGGGGCAACAGCAGAAGCGUUCACGUCGCGGCCCCUGCCAGAUUCUGGUGAAUCUGCGAAUUCUGCUGU [C7A U38C] | 0.221 |
| GGGGGCAACAGCAGAAGCGUUCACGUCGCGGCCCCUGACAGAUUCUGGUGAAUCUGCGAAUUCUGCUGU [C7A U38A] | 0.191 |
| GGGGGCAACAGCAGAAGCGUUCACGUCGUGGCCCCUGUCAGAUUCUGGUGAAUCUGCGAAUUCUGCUGU [C7A C29U] | 0.261 |
| GGGGGCAACAGCAGAAGCGUUCACGGCGCGGCCCCUGUCAGAUUCUGGUGAAUCUGCGAAUUCUGCUGU [C7A U26G] | 0.274 |
| GGGGGCAACAGCAGAAGCGUUCACGCCGCGGCCCCUGUCAGAUUCUGGUGAAUCUGCGAAUUCUGCUGU [C7A U26C] | 0.357 |

| Variant | self-cleavage |
| --- | --- |
| GGGGGCAACAGCAGAAGCGUUCACGUCACGGCCCCUGUCAGAUUCUGGUGAAUCUGCGAAUUCUGCUGU [C7A G28A] | 0.128 |
| GGGGGCAACAGCAGAAGCGUUCACGUCCCGGCCCCUGUCAGAUUCUGGUGAAUCUGCGAAUUCUGCUGU [C7A G28C] | 0.11 |
| GGGGGCAACAGCAGAAGCGUUCACGUCUCGGCCCCUGUCAGAUUCUGGUGAAUCUGCGAAUUCUGCUGU [C7A G28U] | 0.128 |
| GGGGGCAACAGCAGAAGCGUUCACGUCGCAGCCCCUGUCAGAUUCUGGUGAAUCUGCGAAUUCUGCUGU [C7A G30A] | 0.826 |
| GGGGGCAACAGCAGAAGCGUUCACGUCGCUGCCCCUGUCAGAUUCUGGUGAAUCUGCGAAUUCUGCUGU [C7A G30U] | 0.9 |
| GGGGGCAACAGCAGAAGCGUUCACGUCGCCGCCCCUGUCAGAUUCUGGUGAAUCUGCGAAUUCUGCUGU [C7A G30C] | 0.661 |
| GGGGGCAACAGCAGAAGCGUUCACGUCGCGGCCCCUGUCAGAUUCUGGUAAAUCUGCGAAUUCUGCUGU [C7A G50A] | 0.617 |
| GGGGGCAACAGCAGAAGCGUUCACGUCGCGGCCCCUGUCAGAUUCUGGUUAAUCUGCGAAUUCUGCUGU [C7A G50U] | 0.54 |
| GGGGGCAACAGCAGAAGCGUUCACGUCGCGGCCCCUGUCAGAUUCUGGUGAAUCUGCGAAUUCUGGUGU [C7A C66G] | 0.42 |
| GGGGGCAACAGCAGAAGCGUUCACGUCGCGGCCCCUGUCAGAUUCUGGUGAAUCUGCGAAUUCUGAUGU [C7A C66A] | 0.354 |
| GGGGGCAACAGCAGAAGCGUUCACGUCGCGGCCCCUGUCAGAUUCUGGUGAAUCUGCGAAUUCUGUUGU [C7A C66U] | 0.697 |
| GGGGGCAACAGCAUAAGCGUUCACGUCGCGGCCCCUGUCAGAUUCUGGUGAAUCUGCGAAUUCUGCUGU [C7A G14U] | 0.131 |
| GGGGGCAACAGCAAAAGCGUUCACGUCGCGGCCCCUGUCAGAUUCUGGUGAAUCUGCGAAUUCUGCUGU [C7A G14A] | 0.167 |
| GGGGGCAACAGCACAAGCGUUCACGUCGCGGCCCCUGUCAGAUUCUGGUGAAUCUGCGAAUUCUGCUGU [C7A G14C] | 0.137 |
| GGGGGCAACAGCAGAAGCGUUCACGUCGCGGCCCCCGUCAGAUUCUGGUGAAUCUGCGAAUUCUGCUGU [C7A U36C] | 0.223 |
| GGGGGCAACAGCAGAAGCGUUCACGUCGCGGCCCCGGUCAGAUUCUGGUGAAUCUGCGAAUUCUGCUGU [C7A U36G] | 0.205 |
| GGGGGCAACAGCAGAAGCGUUCACGUCGCGGGCCCUGUCAGAUUCUGGUGAAUCUGCGAAUUCUGCUGU [C7A C32G] | 0.126 |
| GGGGGCAACAGCAGAAGCGUUCACGUCGCGGUCCCUGUCAGAUUCUGGUGAAUCUGCGAAUUCUGCUGU [C7A C32U] | 0.359 |
| GGGGGCAACAGCAGAAGCGUUCACGUCGCGGCCCCUGUUAGAUUCUGGUGAAUCUGCGAAUUCUGCUGU [C7A C39U] | 0.348 |
| GGGGGCAACAGCAGAAGCGUUCACGUCGCGGCCCCUGUAAGAUUCUGGUGAAUCUGCGAAUUCUGCUGU [C7A C39A] | 0.186 |
| GGGGGCAACAGCAGAAGCGUUCACGUCGCGGCCCCUGUCAGAUUCUGGGGAAUCUGCGAAUUCUGCUGU [C7A U49G] | 0.409 |
| GGGGGCAACAGCAGAAGCGUUCACGUCGCGGCCCCUGUCAGAUUCUGGCGAAUCUGCGAAUUCUGCUGU [C7A U49C] | 0.601 |
| GGGGGCAACAGCAGAAGCGUUCACGUCGCGGCCCCUGUCAGAUUCUGGAGAAUCUGCGAAUUCUGCUGU [C7A U49A] | 0.601 |
| GGGGGCAACAGCAGAAGCGUUCACGUCGCGGCCCCUGUCAGAUUCUGGUGAAUCUGCGAAUUUUGCUGU [C7A C63U] | 0.515 |
| GGGGGCAACAGCAGAAGCCUUCACGUCGCGGCCCCUGUCAGAUUCUGGUGAAUCUGCGAAUUCUGCUGU [C7A G19C] | 0.143 |
| GGGGGCAACAGCAGAAGCUUUCACGUCGCGGCCCCUGUCAGAUUCUGGUGAAUCUGCGAAUUCUGCUGU [C7A G19U] | 0.163 |

| Variant | self-cleavage |
| --- | --- |
| GGGGGCAACAGCAGAAGCGUUCACGUCGCGGCCCCUGUCAGAUUCUGGUGAAUCUGCGAAUUCUGCUUU [C7A G68U] | 0.937 |
| GGGGGCAACAGCAGAAGCGUUCACGUCGCGGCCCCUGUCAGAUUCUGGUGAAUCUGCGAAUUCUGCUAU [C7A G68A] | 0.984 |
| GGGGGCAACAGCAGAAGCGUUCACGUCGCGGCCCCUGUCAGAUUCUGGUGAAUCUGAGAAUUCUGCUGU [C7A C57A] | 0.173 |
| GGGGGCAACAGCAGAAGCGUUCACGUCGCGGCCCCUGUCAGAUUCUGGUGAAUCUGUGAAUUCUGCUGU [C7A C57U] | 0.172 |
| GGGGGCAACAGCAGAAGCGUUCACGUCGCGGCCCCUGUCAGAUUCUGGUGAAUUUGCGAAUUCUGCUGU [C7A C54U] | 0.614 |
| GGGGGCAACAGCAGAAGCGUUCACGUCGCGGCCCCUGUCAGAUUCUGGUGAAUAUGCGAAUUCUGCUGU [C7A C54A] | 0.318 |
| GGGGGCAACAGCAGAAGCGUUCACGUCGCGGCCCCUGUCAGAUUCUGGUGAAUCUGCUAAUUCUGCUGU [C7A G58U] | 0.645 |
| GGGGGCAACAGCAGAAGCGUUCACGUCGCGGCCCCUGUCAGAUUCUGGUGAAUCUGCAAAUUCUGCUGU [C7A G58A] | 0.338 |
| GGGGGCAACAGCAGAAGCGUUCACGUCGCGCCCCCUGUCAGAUUCUGGUGAAUCUGCGAAUUCUGCUGU [C7A G31C] | 0.159 |
| GGGGGCAACAGCAGAAGCGUUCACGUCGCGACCCCUGUCAGAUUCUGGUGAAUCUGCGAAUUCUGCUGU [C7A G31A] | 0.499 |
| GGGGGCAACAGCAGAAGCGUUCACGUCGCGGCCCCUGUCAGACUCUGGUGAAUCUGCGAAUUCUGCUGU [C7A U43C] | 0.388 |
| GGGGGCAACAGCAGAAGCGUUCACGUCGCGGCCCGUGUCAGAUUCUGGUGAAUCUGCGAAUUCUGCUGU [C7A C35G] | 0.156 |
| GGGGGCAACAGCAGAAGCGUUCACGUCGCGGCCCUUGUCAGAUUCUGGUGAAUCUGCGAAUUCUGCUGU [C7A C35U] | 0.222 |
| GGGGGCAACAGCAGAAGCGUUCACUUCGCGGCCCCUGUCAGAUUCUGGUGAAUCUGCGAAUUCUGCUGU [C7A G25U] | 0.111 |
| GGGGGCAACAGCAGAAGCGUUCACAUCGCGGCCCCUGUCAGAUUCUGGUGAAUCUGCGAAUUCUGCUGU [C7A G25A] | 0.163 |
| GGGGGCAACAGCAGAAGCGUUCACCUCGCGGCCCCUGUCAGAUUCUGGUGAAUCUGCGAAUUCUGCUGU [C7A G25C] | 0.144 |
| GGGGGCAACAGCAGAAGCGUUCACGUCGCGGCCCCUGUCAGAUUCUGAUGAAUCUGCGAAUUCUGCUGU [C7A G48A] | 0.67 |
| GGGGGCAACAGCAGAAGCGUUCACGUCGCGGCCCCUGUCAGAUUCUGUUGAAUCUGCGAAUUCUGCUGU [C7A G48U] | 0.696 |
| GGGGGCAACAGCAGAAGCGUACACGUCGCGGCCCCUGUCAGAUUCUGGUGAAUCUGCGAAUUCUGCUGU [C7A U21A] | 0.576 |
| GGGGGCAACAGCAGAAGCGUGCACGUCGCGGCCCCUGUCAGAUUCUGGUGAAUCUGCGAAUUCUGCUGU [C7A U21G] | 0.077 |
| GGGGGCAACAGCAGAAGCGUCCACGUCGCGGCCCCUGUCAGAUUCUGGUGAAUCUGCGAAUUCUGCUGU [C7A U21C] | 0.266 |
| GGGGGCAACAGCAGAAGCGGUCACGUCGCGGCCCCUGUCAGAUUCUGGUGAAUCUGCGAAUUCUGCUGU [C7A U20G] | 0.127 |
| GGGGGCAACAGCAGAAGCGCUCACGUCGCGGCCCCUGUCAGAUUCUGGUGAAUCUGCGAAUUCUGCUGU [C7A U20C] | 0.211 |
| GGGGGCAACAGCAGAAGCGAUCACGUCGCGGCCCCUGUCAGAUUCUGGUGAAUCUGCGAAUUCUGCUGU [C7A U20A] | 0.0917 |
| GGGGGCAACAGCAGAAGCGUUCACGUCGCGGCCCCUGUCAGAUUCGGGUGAAUCUGCGAAUUCUGCUGU [C7A U46G] | 0.654 |
| GGGGGCAACAGCAGAAGCGUUCACGUCGCGGCCCCUGUCAGAUUCCGGUGAAUCUGCGAAUUCUGCUGU [C7A U46C] | 0.587 |
